Results taken from publication PMC5902578.

Columns and labels:
[1] = target: yeast Hsp90 W300A (S. cerevisiae) (UniProt P02829); test: AUC; as a1, with 2 mM ATPγS
[2] = target: yeast Hsp90 W300E (S. cerevisiae) (UniProt P02829); test: AUC; as a1, with 2 mM ATPγS
[3] = target: yeast Hsp90 W300A (S. cerevisiae) (UniProt P02829); test: AUC; as a1, with 2 mM AMP–PNP
[4] = target: yeast Hsp90 W300E (S. cerevisiae) (UniProt P02829); test: AUC; as a1, with 2 mM AMP–PNP

Measured: percent of labelled GR-LBD in complex

human glucocorticoid receptor ligand binding domain (GR-LBD) (domain or fragment)
< 5%: all assays above
